From article PMC2175199 (The Journal of Cell Biology, 2000)

Experiments:
hSA2 = molecular target: T1, hSA2 (human (endogenous in HeLa), UniProt Q8N3U4 1-1231); test: co-IP
T1 sequence: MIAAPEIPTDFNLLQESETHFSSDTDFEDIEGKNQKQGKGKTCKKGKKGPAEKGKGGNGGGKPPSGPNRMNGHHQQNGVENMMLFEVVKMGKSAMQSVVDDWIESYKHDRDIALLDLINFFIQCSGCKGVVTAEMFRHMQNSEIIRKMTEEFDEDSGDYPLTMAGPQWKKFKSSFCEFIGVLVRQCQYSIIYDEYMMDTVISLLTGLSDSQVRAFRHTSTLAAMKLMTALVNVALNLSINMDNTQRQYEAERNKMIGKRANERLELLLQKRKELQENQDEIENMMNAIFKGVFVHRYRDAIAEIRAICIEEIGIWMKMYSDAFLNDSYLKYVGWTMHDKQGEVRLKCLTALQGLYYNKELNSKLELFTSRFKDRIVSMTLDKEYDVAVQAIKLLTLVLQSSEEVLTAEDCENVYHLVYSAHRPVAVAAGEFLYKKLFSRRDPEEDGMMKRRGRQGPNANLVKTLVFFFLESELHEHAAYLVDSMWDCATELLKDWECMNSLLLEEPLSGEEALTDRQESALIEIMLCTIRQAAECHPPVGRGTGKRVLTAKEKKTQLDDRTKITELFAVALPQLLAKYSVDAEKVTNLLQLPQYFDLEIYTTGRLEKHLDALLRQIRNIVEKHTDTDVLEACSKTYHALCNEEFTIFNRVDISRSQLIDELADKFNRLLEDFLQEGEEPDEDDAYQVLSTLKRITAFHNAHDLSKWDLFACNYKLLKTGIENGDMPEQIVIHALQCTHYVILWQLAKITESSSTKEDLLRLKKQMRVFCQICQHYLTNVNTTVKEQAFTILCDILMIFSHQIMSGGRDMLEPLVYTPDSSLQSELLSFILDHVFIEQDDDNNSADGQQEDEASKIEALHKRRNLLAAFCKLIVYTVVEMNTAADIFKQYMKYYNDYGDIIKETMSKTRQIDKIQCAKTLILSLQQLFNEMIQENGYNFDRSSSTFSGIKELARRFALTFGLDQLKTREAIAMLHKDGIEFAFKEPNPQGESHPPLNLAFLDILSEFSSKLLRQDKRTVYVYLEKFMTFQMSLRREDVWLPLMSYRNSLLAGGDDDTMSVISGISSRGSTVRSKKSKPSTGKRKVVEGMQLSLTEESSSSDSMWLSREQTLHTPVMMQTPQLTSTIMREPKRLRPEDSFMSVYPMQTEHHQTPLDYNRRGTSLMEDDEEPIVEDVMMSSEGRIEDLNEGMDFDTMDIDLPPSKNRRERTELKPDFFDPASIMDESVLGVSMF

hSA1 = molecular target: T2, hSA1 (human (endogenous in HeLa), UniProt Q8WVM7 1-1258); test: co-IP
T2 sequence: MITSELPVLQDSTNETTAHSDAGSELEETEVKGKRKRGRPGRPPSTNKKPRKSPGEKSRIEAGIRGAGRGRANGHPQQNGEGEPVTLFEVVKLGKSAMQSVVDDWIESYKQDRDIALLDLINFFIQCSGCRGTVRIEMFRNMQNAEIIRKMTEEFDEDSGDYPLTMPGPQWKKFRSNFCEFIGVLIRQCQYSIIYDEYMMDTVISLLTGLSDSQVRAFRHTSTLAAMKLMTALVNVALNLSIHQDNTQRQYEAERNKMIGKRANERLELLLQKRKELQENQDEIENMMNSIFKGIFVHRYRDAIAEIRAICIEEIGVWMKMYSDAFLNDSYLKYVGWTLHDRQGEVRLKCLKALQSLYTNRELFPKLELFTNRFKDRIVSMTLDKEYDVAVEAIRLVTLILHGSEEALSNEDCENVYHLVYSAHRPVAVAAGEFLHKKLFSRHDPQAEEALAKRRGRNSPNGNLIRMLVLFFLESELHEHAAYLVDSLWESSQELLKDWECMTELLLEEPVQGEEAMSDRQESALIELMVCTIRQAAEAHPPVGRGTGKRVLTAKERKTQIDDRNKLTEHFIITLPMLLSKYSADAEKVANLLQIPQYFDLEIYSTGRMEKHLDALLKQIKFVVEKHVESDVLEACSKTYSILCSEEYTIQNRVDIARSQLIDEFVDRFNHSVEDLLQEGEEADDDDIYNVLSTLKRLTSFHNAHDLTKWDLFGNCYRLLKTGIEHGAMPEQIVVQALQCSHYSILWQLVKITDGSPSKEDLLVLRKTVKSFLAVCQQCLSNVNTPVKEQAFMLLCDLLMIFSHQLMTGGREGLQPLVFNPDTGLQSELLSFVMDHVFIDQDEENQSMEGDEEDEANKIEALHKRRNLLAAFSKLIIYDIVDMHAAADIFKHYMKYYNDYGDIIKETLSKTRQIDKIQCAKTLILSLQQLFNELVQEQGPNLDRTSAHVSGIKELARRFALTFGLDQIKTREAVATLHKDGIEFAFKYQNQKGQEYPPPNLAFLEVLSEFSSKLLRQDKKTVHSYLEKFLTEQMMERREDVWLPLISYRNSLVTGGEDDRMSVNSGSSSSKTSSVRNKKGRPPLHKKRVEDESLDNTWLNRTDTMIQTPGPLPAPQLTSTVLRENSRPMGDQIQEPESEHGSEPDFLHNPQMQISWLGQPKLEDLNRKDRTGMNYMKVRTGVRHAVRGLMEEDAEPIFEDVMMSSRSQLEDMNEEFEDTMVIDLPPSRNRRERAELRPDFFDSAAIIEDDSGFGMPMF

Row | Binder | percent removed from the extract by anti-XSA2 (hSA2) [%] | percent removed from the extract by anti-XSA1 (hSA1) [%]
1 | hSMC3 (natural protein) MYIKQVIIQGFRSYRDQTIVDPFSSKHNVIVGRNGSGKSNFFYAIQFVLSDEFSHLRPEQRLALLHEGTGPRVISAFVEIIFDNSDNRLPIDKEEVSLRRVIGAKKDQYFLDKKMVTKNDVMNLLESAGFSRSNPYYIVKQGKINQMATAPDSQRLKLLREVAGTRVYDERKEESISLMKETEGKREKINELLKYIEERLHTLEEEKEELAQYQKWDKMRRALEYTIYNQELNETRAKLDELSAKRETSGEKSRQLRDAQQDARDKMEDIERQVRELKTKISAMKEEKEQLSAERQEQIKQRTKLELKAKDLQDELAGNSEQRKRLLKERQKLLEKIEEKQKELAETEPKFNSVKEKEERGIARLAQATQERTDLYAKQGRGSQFTSKEERDKWIKKELKSLDQAINDKKRQIAAIHKDLEDTEANKEKNLEQYNKLDQDLNEVKARVEELDRKYYEVKNKKDELQSERNYLWREENAEQQALAAKREDLEKKQQLLRAATGKAILNGIDSINKVLDHFRRKGINQHVQNGYHGIVMNNFECEPAFYTCVEVTAGNRLFYHIVDSDEVSTKILMEFNKMNLPGEVTFLPLNKLDVRDTAYPETNDAIPMISKLRYNPRFDKAFKHVFGKTLICRSMEVSTQLARAFTMDCITLEGDQVSHRGALTGGYYDTRKSRLELQKDVRKAEEELGELEAKLNENLRRNIERINNEIDQLMNQMQQIETQQRKFKASRDSILSEMKMLKEKRQQSEKTFMPKQRSLQSLEASLHAMESTRESLKAELGTDLLSQLSLEDQKRVDALNDEIRQLQQENRQLLNERIKLEGIITRVETYLNENLRKRLDQVEQELNELRETEGGTVLTATTSELEAINKRVKDTMARSEDLDNSIDKTEAGIKELQKSMERWKNMEKEHMDAINHDTKELEKMTNRQGMLLKKKEECMKKIRELGSLPQEAFEKYQTLSLKQLFRKLEQCNTELKKYSHVNKKALDQFVNFSEQKEKLIKRQEELDRGYKSIMELMNVLELRKYEAIQLTFKQVSKNFSEVFQKLVPGGKATLVMKKGDVEGSQSQDEGEGSGESERGSGSQSSVPSVDQFTGVGIRVSFTGKQGEMREMQQLSGGQKSLVALALIFAIQKCDPAPFYLFDEIDQALDAQHRKAVSDMIMELAVHAQFITTTFRPELLESADKFYGVKFRNKVSHIDVITAEMAKDFVEDDTTHG | ~75 | ~25
2 | hSMC1 (natural protein) MGFLKLIEIENFKSYKGRQIIGPFQRFTAIIGPNGSGKSNLMDAISFVLGEKTSNLRVKTLRDLIHGAPVGKPAANRAFVSMVYSEEGAEDRTFARVIVGGSSEYKINNKVVQLHEYSEELEKLGILIKARNFLVFQGAVESIAMKNPKERTALFEEISRSGELAQEYDKRKKEMVKAEEDTQFNYHRKKNIAAERKEAKQEKEEADRYQRLKDEVVRAQVQLQLFKLYHNEVEIEKLNKELASKNKEIEKDKKRMDKVEDELKEKKKELGKMMREQQQIEKEIKEKDSELNQKRPQYIKAKENTSHKIKKLEAAKKSLQNAQKHYKKRKGDMDELEKEMLSVEKARQEFEERMEEESQSQGRDLTLEENQVKKYHRLKEEASKRAATLAQELEKFNRDQKADQDRLDLEERKKVETEAKIKQKLREIEENQKRIEKLEEYITTSKQSLEEQKKLEGELTEEVEMAKRRIDEINKELNQVMEQLGDARIDRQESSRQQRKAEIMESIKRLYPGSVYGRLIDLCQPTQKKYQIAVTKVLGKNMDAIIVDSEKTGRDCIQYIKEQRGEPETFLPLDYLEVKPTDEKLRELKGAKLVIDVIRYEPPHIKKALQYACGNALVCDNVEDARRIAFGGHQRHKTVALDGTLFQKSGVISGGASDLKAKARRWDEKAVDKLKEKKERLTEELKEQMKAKRKEAELRQVQSQAHGLQMRLKYSQSDLEQTKTRHLALNLQEKSKLESELANFGPRINDIKRIIQSREREMKDLKEKMNQVEDEVFEEFCREIGVRNIREFEEEKVKRQNEIAKKRLEFENQKTRLGIQLDFEKNQLKEDQDKVHMWEQTVKKDENEIEKLKKEEQRHMKIIDETMAQLQDLKNQHLAKKSEVNDKNHEMEEIRKKLGGANKEMTHLQKEVTAIETKLEQKRSDRHNLLQACKMQDIKLPLSKGTMDDISQEEGSSQGEDSVSGSQRISSIYAREALIEIDYGDLCEDLKDAQAEEEIKQEMNTLQQKLNEQQSVLQRIAAPNMKAMEKLESVRDKFQETSDEFEAARKRAKKAKQAFEQIKKERFDRFNACFESVATNIDEIYKALSRNSSAQAFLGPENPEEPYLDGINYNCVAPGKRFRPMDNLSGGEKTVAALALLFAIHSYKPAPFFVLDEIDAALDNTNIGKVANYIKEQSTCNFQAIVISLKEEFYTKAESLIGVYPEQGDCVISKVLTFDLTKYPDANPNPNEQ | ~75 | ~25
3 | hRAD21 (natural protein) MFYAHFVLSKRGPLAKIWLAAHWDKKLTKAHVFECNLESSVESIISPKVKMALRTSGHLLLGVVRIYHRKAKYLLADCNEAFIKIKMAFRPGVVDLPEENREAAYNAITLPEEFHDFDQPLPDLDDIDVAQQFSLNQSRVEEITMREEVGNISILQENDFGDFGMDDREIMREGSAFEDDDMLVSTTTSNLLLESEQSTSNLNEKINHLEYEDQYKDDNFGEGNDGGILDDKLISNNDGGIFDDPPALSEAGVMLPEQPAHDDMDEDDNVSMGGPDSPDSVDPVEPMPTMTDQTTLVPNEEEAFALEPIDITVKETKAKRKRKLIVDSVKELDSKTIRAQLSDYSDIVTTLDLAPPTKKLMMWKETGGVEKLFSLPAQPLWNNRLLKLFTRCLTPLVPEDLRKRRKGGEADNLDEFLKEFENPEVPREDQQQQHQQRDVIDEPIIEEPSRLQESVMEASRTNIDESAMPPPPPQGVKRKAGQIDPEPVMPPQQVEQMEIPPVELPPEEPPNICQLIPELELLPEKEKEKEKEKEDDEEEEDEDASGGDQDQEERRWNKRTQQMLHGLQRALAKTGAESISLLELCRNTNRKQAAAKFYSFLVLKKQQAIELTQEEPYSDIIATPGPRFHII | ~75 | ~25
